Laboratory results as given in patent publication US20200223919A1 (CYTOMX THERAPEUTICS, published 2020).

Key:
human CD166 = biological target: T1, human CD166 (human, UniProt Q13740 28-583); experiment: IHC on FFPE HCC1806 cells, supernatant at 10 µg/mL IgG
T1 construct: whole, on cells; Endogenous protein detected by IHC on fixed, paraffin-embedded cells and tissues, and by Western blot of cell lysates; also called hCD166
T1 sequence (looked up): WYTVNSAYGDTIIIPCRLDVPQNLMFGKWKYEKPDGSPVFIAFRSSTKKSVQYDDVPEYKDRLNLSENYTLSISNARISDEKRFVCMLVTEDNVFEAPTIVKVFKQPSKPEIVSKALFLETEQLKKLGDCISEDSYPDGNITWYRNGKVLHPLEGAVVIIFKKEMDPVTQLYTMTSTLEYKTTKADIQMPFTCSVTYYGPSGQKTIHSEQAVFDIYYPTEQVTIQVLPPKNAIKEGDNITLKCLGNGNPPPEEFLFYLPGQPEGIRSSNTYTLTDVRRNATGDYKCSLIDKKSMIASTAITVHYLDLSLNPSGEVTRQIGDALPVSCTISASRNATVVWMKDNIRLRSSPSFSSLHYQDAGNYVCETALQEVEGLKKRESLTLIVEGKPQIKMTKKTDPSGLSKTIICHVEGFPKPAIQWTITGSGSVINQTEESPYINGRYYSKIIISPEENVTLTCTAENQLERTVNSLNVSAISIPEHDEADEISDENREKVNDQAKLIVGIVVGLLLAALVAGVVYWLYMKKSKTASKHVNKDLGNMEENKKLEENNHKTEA
Experimental: As shown in the exemplary IHC images of FIGS. 1-4, formalin-fixed paraffin-embedded (FFPE) human tumor cell lines (triple-negative breast cancer-derived cell line HCC1806 and breast ductal carcinoma-derived cell line BT-20) were prepared and blocked using standard protocols, and then incubated with the indicated hybridoma supernatents (Ab3, Ab6, Ab2, Ab1, Ab5, Ab7, Ab4, or Ab8 of the present disclosure) at 10 μg/mL IgG for 60 minutes are room temperature. As a control, FFPE samples were also incubated with ABCAM® EPR2759(2)/ab109215 anti-hCD166 rabbit monoclonal antibody at 5 μg/mL. Detection of bound primary antibody was performed by subsequent incubation with biotinylated-conjugated anti-mouse IgG antibody (for the hybridoma supernatents) or biotinylated-conjugated anti-rabbit IgG antibody (for the ABCAM® antibody), followed by addition of avidin-horseradish peroxidase (HRP) (Vectastain Elite ABC HRP Kit, Vector Laboratories) to form the avidin-biotin-HRP complex, followed by addition of a 3,3′-diaminobenzidine substrate (DAB Plus, Dako). Tissues were counterstained with Hematoxylin (Fisher Scientific).

[1] = biological target: T2, Peptide A, amino acid residues 550 to 569 of human CD166 (human); experiment: ELISA, 200 ng/well peptide with 0.9 mg/mL BSA; expanded hybridoma clone supernatant
T2 construct: Coated at 100 or 200 ng/well with 0.9 mg/mL BSA
T2 peptide: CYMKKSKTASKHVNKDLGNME
Text: (§1) B cells from each of Mouse #2 and Mouse #3 were fused in a combined manner to generate hybridomas in accordance with methods known in the art. Hybridomas were cloned and ˜1100 clone supernatants were screened against the each of the human CD166-derived peptides using a Direct EIA format using a goat anti-IgG gamma chain-specific secondary antibody coupled to horseradish peroxidase (HRP) (Millipore, Cat. No. AP503P. Following the initial screen, 136 clones were selected for a further confirmatory screen, of which forty (40) were selected for expansion. The expanded clones were assayed for mouse IgG levels using anti-mouse sensors in an Octet RED96 system (Pall ForteBio) and ELISA (200 ng/well of peptides A or B with 0.9 mg/mL BSA). Candidates included Ab1 (also referred to herein as “Example anti-CD166 ICD antibody 1”), Ab2 (also referred to herein as “Example anti-CD166 ICD antibody 2”), Ab3, Ab4, Ab5, Ab6, Ab7, and Ab8. Five candidates (Ab1, Ab2, Ab3, Ab4, and Ab5) shown below in Table 4 were selected.

[2] = biological target: T3, Peptide B, amino acid residues 565 to 583 of human CD166 (human); experiment: as above
T3 construct: Coated at 100 or 200 ng/well with 0.9 mg/mL BSA
T3 peptide: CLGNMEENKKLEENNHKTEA
Text: as §1

Row | Binder | binding result (human CD166) | A620 [1] | A620 [2]
1 | Ab1 anti-hCD166 mouse monoclonal antibody (antibody, mouse IgG1, kappa, also called recombinant Ab1) heavy: EVQLQQSGAELVKPGASVKLSCTASGFNIKDYYMHWVKQRTEQGLEWIGKIDPENGETKYAPKFQGKATITADTSSSTAYLQLSSLTSEDTAVYYCAREGFMDYWGQGASVTVSSAKTTPPSVYPLAPGSAAQTNSMVTLGCLVKGYFPEPVTVTWNSGSLSSGVHTFPAVLQSDLYTLSSSVTVPSSTWPSQTVTCNVAHPASSTKVDKKIVPRDCGCKPCICTVPEVSSVFIFPPKPKDVLTITLTPKVTCVVVDISKDDPEVQFSWFVDDVEVHTAQTQPREEQFNSTFRSVSELPIMHQDWLNGKEFKCRVNSAAFPAPIEKTISKTKGRPKAPQVYTIPPPKEQMAKDKVSLTCMITDFFPEDITVEWQWNGQPAENYKNTQPIMDTDGSYFVYSKLNVQKSNWEAGNTFTCSVLHEGLHNHHTEKSLSHSPGK light: DVVMTQTPLSLPVSLGDQASISCRSSQSLVHSNGNTYLHWYLQKPGQSPKLLIYKVSNRFSGVPDRFSGSGSGTDFTLKISRVEAEDLGVYFCSQSTFVPLTFGAGTKLELKRADAAPTVSIFPPSSEQLTSGGASVVCFLNNFYPKDINVKWKIDGSERQNGVLNSWTDQDSKDSTYSMSSTLTLTKDEYERHNSYTCEATHKTSTSPIVKSFNRNEC | binds | 0.162 A620 | 3.23 A620
2 | Ab2 anti-hCD166 mouse monoclonal antibody (antibody, mouse IgG1, kappa, Tested as hybridoma supernatant and as antibody purified from hybridoma supernatant) heavy: EVQLQQSGAELVKPGASVKLSCTASGFNIKDYYMHWVRQRTEQGLEWIGKIDPEDGETKYAPKFQGKATITADTSSNTAYLQLSSLTSEDTAVYYCAREGFMDYWGQGTSVTVSSAKTTPPSVYPLAPGSAAQTNSMVTLGCLVKGYFPEPVTVTWNSGSLSSGVHTFPAVLQSDLYTLSSSVTVPSSTWPSQTVTCNVAHPASSTKVDKKIVPRDCGCKPCICTVPEVSSVFIFPPKPKDVLTITLTPKVTCVVVDISKDDPEVQFSWFVDDVEVHTAQTQPREEQFNSTFRSVSELPIMHQDWLNGKEFKCRVNSAAFPAPIEKTISKTKGRPKAPQVYTIPPPKEQMAKDKVSLTCMITDFFPEDITVEWQWNGQPAENYKNTQPIMDTDGSYFVYSKLNVQKSNWEAGNTFTCSVLHEGLHNHHTEKSLSHSPGK light: DNVMTQTPLSLSVSLGDQASISCRSSQSLVHSNGNTYLHWYLQKPGQSPKLLIYKVSNRFSGVPDRFSGSGSGTDFTLKISRVEAEDLGVYFCSQSTHVPLTFGAGTKLELKRADAAPTVSIFPPSSEQLTSGGASVVCFLNNFYPKDINVKWKIDGSERQNGVLNSWTDQDSKDSTYSMSSTLTLTKDEYERHNSYTCEATHKTSTSPIVKSFNRNEC | binds | 0.067 A620 | 3.02 A620
